The source of these data is patent US12606635B2, “Glypican-2-binding moieties, chimeric antigen receptors and uses thereof” (Nanjing Legend Biotech Co., Ltd., priority 2020, dated 2026).

Series [1] relates to human neuroblastoma cell line SH-SY5Y. As to the kind of experiment: In vitro cytotoxicity assay (LDH), SH-SY5Y. It counts as cell-based. To be noted: 1:1 effector to target ratio, FIG. 8B. Here is the method: (§1) The pre-activated T cells were transduced with lentivirus stock in the presence of […] polybrene and 300 IU/mL IL-2. T cells and lentivirus were centrifuged at 1000 g, 32° C. for 1 h and placed in humidified cell culture incubator for transgene expression under suitable conditions. On day 5 or day 7 or day 10 post-transduction, transduced T cells were harvested and co-incubated with tumor cells at an effector (CAR T) to target cell ratio of 10:1 or 5:1 or 2:1 or 1:1 or 0.2:1 for 20 hours. Target cells were human neuroblastoma cell line SH-SY5Y (ATCC, #CRL-2266), human neuroblastoma cell line IMR-32 cells (ATCC, #CCL-127), or human epidermoid carcinoma cell line A-431 (ATCC, #CRL-1555). To assay the cytotoxicity of CAR T cells on tumor cells, the Cytotoxicity Detection Kit (LDH) (Roche, #11644793001) assay reagents were prepared according to manufacturer's protocol. Reaction mix was added to the cell-free supernatant of each sample to detect the LDH released from cells. Optical densities at OD492 nm and OD650 nm were measured by PHERStar Microplate Reader. Baseline LDH released from the target cell in the absence of effector cells and effector cell in the absence of target cells were subtracted from the total LDH amount. The target maximum release was obtained by adding Triton-X100 at a final concentration of 1% to target cells in the absence of effector cells at the time when the cytotoxicity assays initiated. Supernatant from target cells in the absence of effector cells was used for target minimum release. The specific cytotoxicity was calculated by the formula: % Target cell lysis=100*[(OD CAR T cell+Target cell)−(OD CAR T cell)−(OD Target cell)+(OD Buffer background)]/(OD Target Maximum release−OD Target Minimum release).
(§2) On day 5 or day 8 or day 10 post-transduction, transduced T cells were harvested and co-incubated with tumor cells at an effector (CAR T) to target cell ratio of 10:1 or 1:1 or 0.2:1 for 20 hours. To assay the cytotoxicity of CAR T cells on tumor cells, the Cytotoxicity Detection Kit (LDH) (Roche, #11644793001) was added to the culture supernatant and the specific cytotoxicity for each CAR T cell construct was measured as described in Example 6.

The test system of series [2] is human neuroblastoma cell line IMR-32. Description: In vitro cytotoxicity assay (LDH), IMR-32. The format is cell-based. Particulars: 1:1 effector to target ratio, FIG. 8B. On the procedure: as §1, with “Supernatant from target cells in the absence of effector cells was used for target minimum release.” left out
as §2

In a further series the test system is SH-SY5Y. Description: IFNγ release in co-culture with SH-SY5Y. It counts as cell-based, human. To be noted: Example 7, co-culture with SH-SY5Y, FIG. 8D-8F. From the text: (§3) In addition to the cytotoxicity data above, supernatants from the in vitro co-culture assays were also collected to assess CAR T cells-induced cytokine release, e.g., release of interferon gamma (i.e., IFNγ), as another indicator of cytotoxicity, was quantified using a HTRF human IFNγ AlphaLISA kit (Perkin Elmer, #62HIFNGPEH) per manufacturer's instruction. […] No significant cytokine release were detected against GPC2-negative cell line A-431.
(§4) Supernatants from the in vitro co-culture assays were collected to assess CAR T cells-induced cytokine release, e.g., interferon gamma (i.e., IFNγ) release as described in Example 6. […] IFNγ was not induced in GPC2-negative A-431 cells. […] Cytokine release data was consistent with the in vitro cytotoxicity data.

In the next series the test system is IMR-32. As to the kind of experiment: IFNγ release in co-culture with IMR-32. It counts as cell-based, human. Particulars: Example 7, co-culture with IMR-32, FIG. 8D-8F.
Excerpt: as §3, §4

B1: CAS71529VH5-BBz: humanized VHH anti-GPC2 CAR (4-1BB, CD3ζ), SEQ ID NO: 222; tested as CAR T cells (protein)
chain: MALPVTALLLPLALLLHAARPEVQLVESGGGLVQPGGSLRLSCAVSEYRYSSRYCMGWFRQAPGKGLEGVSAIDSNGSADYVDSVKGRFTISKDNSKNTLYLQMNSLRAEDTAVYYCAADHLAYDCYSGATSVFRYWGQGTLVTVSSTTTPAPRPPTPAPTIASQPLSLRPEACRPAAGGAVHTRGLDFACDIYIWAPLAGTCGVLLLSLVITLYCKRGRKKLLYIFKQPFMRPVQTTQEEDGCSCRFPEEEEGGCELRVKFSRSADAPAYKQGQNQLYNELNLGRREEYDVLDKRRGRDPEMGGKPRRKNPQEGLYNELQKDKMAEAYSEIGMKGERRRGKGHDGLYQGLSTATKDTYDALHMQALPPR
modifications: expressed in CAR T cells; CAS71529VH5-BBz
Regarding B1, in series [1], the “cytotoxicity against SH-SY5Y” value is reported as “less than 30%”. The “cytotoxicity against IMR-32” value in series [2] is listed as “less than 30%”. Further, the IFNγ release entry in the series with SH-SY5Y and in the series on IMR-32 was “high levels of IFNγ” throughout.
